Changes are numbered by the printed parent chain.
Tests used:
Test in all cases: holdup assay
Design in all cases: key: below the threshold = too weak to quantify, mostly under pKd 3.1 to 4
Conditions in all cases: plain residues with an end cap or a label only (N-terminal biotin on a linker: gsgsgs; C-terminal amide)
[1] = molecular target: T1, ARHGAP21, Q5T5U3
T1 sequence (Q5T5U3 45-169, limits assumed, looked up): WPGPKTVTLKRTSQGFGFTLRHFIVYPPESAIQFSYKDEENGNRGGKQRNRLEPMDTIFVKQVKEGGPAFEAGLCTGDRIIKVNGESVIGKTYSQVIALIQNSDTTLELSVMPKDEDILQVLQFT

[2] = molecular target: DLG1_1, Q12959
[3] = molecular target: DLG1_2, Q12959
[4] = molecular target: DLG1_3, Q12959
[5] = molecular target: DLG2_2, Q15700
DLG2_2, Q15700, sequence (Q15700 189-283): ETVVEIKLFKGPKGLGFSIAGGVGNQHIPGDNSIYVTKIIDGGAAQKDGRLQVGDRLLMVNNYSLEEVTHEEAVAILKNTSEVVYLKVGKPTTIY

[6] = molecular target: T2, DLG3_3, Q92796
T2 sequence (Q92796 374-475, limits assumed, looked up): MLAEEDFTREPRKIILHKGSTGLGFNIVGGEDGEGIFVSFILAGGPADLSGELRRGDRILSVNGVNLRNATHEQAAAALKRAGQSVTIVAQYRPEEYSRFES

[7] = molecular target: FRMPD4, Q14CM0
FRMPD4, Q14CM0, sequence (Q14CM0 67-160): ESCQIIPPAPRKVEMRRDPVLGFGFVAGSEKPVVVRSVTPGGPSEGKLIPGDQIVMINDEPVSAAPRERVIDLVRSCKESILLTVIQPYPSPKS

[8] = molecular target: GRASP, Q7Z6J2
GRASP, Q7Z6J2, sequence (Q7Z6J2 96-193): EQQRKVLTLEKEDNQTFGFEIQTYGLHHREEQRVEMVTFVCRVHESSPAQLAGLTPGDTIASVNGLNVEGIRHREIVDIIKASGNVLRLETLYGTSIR

[9] = molecular target: GRIP2_3, Q9C0E4
GRIP2_3, Q9C0E4, sequence (Q9C0E4 238-339): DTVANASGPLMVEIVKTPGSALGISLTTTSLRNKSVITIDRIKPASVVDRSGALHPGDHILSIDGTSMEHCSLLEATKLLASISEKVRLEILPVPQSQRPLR

[10] = molecular target: GRIP2_5, Q9C0E4
GRIP2_5, Q9C0E4, sequence (Q9C0E4 544-642): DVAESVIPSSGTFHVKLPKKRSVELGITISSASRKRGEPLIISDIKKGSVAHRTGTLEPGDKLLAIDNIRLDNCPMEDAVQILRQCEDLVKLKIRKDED

[11] = molecular target: GRIP2_7, Q9C0E4
GRIP2_7, Q9C0E4, sequence (Q9C0E4 934-1023): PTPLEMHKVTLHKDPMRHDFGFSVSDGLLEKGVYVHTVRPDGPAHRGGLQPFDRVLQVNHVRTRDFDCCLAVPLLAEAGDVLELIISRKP

[12] = molecular target: IL16_3, Q14005
IL16_3, Q14005, sequence (Q14005 1107-1207): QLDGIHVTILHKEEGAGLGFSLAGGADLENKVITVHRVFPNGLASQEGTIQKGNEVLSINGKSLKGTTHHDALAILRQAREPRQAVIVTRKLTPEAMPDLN

[13] = molecular target: Inadl_10, Q8NI35
Inadl_10, Q8NI35, sequence (Q8NI35 1673-1763): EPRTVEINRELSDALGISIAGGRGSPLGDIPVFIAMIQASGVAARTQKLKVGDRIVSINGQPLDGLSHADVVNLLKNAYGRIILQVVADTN

[14] = molecular target: Inadl_5, Q8NI35
Inadl_5, Q8NI35, sequence (Q8NI35 673-780): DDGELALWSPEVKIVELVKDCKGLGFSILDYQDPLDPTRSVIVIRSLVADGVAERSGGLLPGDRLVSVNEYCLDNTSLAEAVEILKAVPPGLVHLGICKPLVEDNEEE

[15] = molecular target: LDB3, O75112
LDB3, O75112, sequence (O75112 1-94): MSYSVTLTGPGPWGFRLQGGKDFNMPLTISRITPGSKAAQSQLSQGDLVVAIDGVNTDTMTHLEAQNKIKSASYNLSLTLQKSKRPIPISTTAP

[16] = molecular target: T3, LIN7A, O14910
T3 sequence (O14910 103-200, limits assumed, looked up): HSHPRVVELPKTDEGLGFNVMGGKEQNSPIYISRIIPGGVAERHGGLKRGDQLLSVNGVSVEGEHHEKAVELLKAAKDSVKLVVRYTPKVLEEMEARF

[17] = molecular target: T4, LIN7B, Q9HAP6
T4 sequence (Q9HAP6 88-185, limits assumed, looked up): T3 sequence (O14910 103-200, limits assumed, looked up) with S2A, V20I, I35V, E42D, H65Q, K77Q, D78G, K89R

[18] = molecular target: LNX1_3, Q8TBB1
LNX1_3, Q8TBB1, sequence (Q8TBB1 500-596): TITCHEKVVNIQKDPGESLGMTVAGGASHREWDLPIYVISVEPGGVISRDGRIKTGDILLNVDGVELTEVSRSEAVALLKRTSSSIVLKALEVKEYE

[19] = molecular target: MAGI3_2, Q5TCQ9
MAGI3_2, Q5TCQ9, sequence (Q5TCQ9 398-503): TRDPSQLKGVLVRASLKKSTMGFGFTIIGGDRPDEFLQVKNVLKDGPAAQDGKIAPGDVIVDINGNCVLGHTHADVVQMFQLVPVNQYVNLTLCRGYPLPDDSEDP

[20] = molecular target: MAST2, Q6P0Q8
MAST2, Q6P0Q8, sequence (Q6P0Q8 1099-1202): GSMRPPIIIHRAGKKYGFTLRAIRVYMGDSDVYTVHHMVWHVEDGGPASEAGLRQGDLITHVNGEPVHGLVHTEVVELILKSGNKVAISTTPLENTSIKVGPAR

[21] = molecular target: T5, MPDZ_5, O75970
T5 sequence (O75970 695-796, limits assumed, looked up): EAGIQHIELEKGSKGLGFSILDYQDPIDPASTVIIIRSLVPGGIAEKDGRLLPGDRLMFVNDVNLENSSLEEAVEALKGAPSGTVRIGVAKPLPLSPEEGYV

[22] = molecular target: T6, PARD3B_1, Q8TEW8
T6 sequence (Q8TEW8 196-299, limits assumed, looked up): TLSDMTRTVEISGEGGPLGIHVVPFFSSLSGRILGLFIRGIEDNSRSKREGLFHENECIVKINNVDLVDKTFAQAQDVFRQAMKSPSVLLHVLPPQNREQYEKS

[23] = molecular target: T7, PCLO, Q9Y6V0
T7 sequence (Q9Y6V0 4491-4600, limits assumed, looked up): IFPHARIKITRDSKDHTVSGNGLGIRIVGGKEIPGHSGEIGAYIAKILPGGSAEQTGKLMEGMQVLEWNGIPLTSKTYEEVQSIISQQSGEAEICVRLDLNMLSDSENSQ

[24] = molecular target: T8, PDZD7_3, Q9H5P4
T8 sequence (Q9H5P4 857-944, limits assumed, looked up): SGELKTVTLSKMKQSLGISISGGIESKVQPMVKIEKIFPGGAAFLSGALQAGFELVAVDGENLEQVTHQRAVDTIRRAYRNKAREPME

[25] = molecular target: PICK1, Q9NRD5
PICK1, Q9NRD5, sequence (Q9NRD5 17-115): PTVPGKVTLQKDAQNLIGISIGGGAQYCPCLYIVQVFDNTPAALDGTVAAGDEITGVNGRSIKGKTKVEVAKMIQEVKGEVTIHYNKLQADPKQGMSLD

[26] = molecular target: T9, SNTG2, Q9NY99
T9 sequence (Q9NY99 68-166, limits assumed, looked up): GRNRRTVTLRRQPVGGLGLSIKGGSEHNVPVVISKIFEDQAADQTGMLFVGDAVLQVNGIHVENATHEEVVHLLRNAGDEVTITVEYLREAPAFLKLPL

[27] = molecular target: TJP1_3, Q07157
TJP1_3, Q07157, sequence (Q07157 416-512): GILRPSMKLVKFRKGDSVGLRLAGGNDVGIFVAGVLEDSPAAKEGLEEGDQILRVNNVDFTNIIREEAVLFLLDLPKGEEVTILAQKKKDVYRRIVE

[28] = molecular target: T10, TX1BP3, O14907
T10 sequence (O14907 10-122, limits assumed, looked up): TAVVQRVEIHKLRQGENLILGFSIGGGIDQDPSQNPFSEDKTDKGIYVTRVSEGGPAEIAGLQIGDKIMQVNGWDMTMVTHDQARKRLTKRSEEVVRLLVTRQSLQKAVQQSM

- pKd [1]: below the threshold
- pKd [2]: below the threshold
- pKd [3]: below the threshold
- pKd [4]: below the threshold
- pKd [5]: below the threshold
- pKd [6]: below the threshold
- pKd [7]: below the threshold
- pKd [8]: below the threshold
- pKd [9]: below the threshold
- pKd [10]: below the threshold
- pKd [11]: below the threshold
- pKd [12]: below the threshold
- pKd [13]: below the threshold
- pKd [14]: below the threshold
- pKd [15]: below the threshold
- pKd [16]: below the threshold
- pKd [17]: 3.48
- pKd [18]: below the threshold
- pKd [19]: below the threshold
- pKd [20]: below the threshold
- pKd [21]: below the threshold
- pKd [22]: below the threshold
- pKd [23]: below the threshold
- pKd [24]: 3.8
- pKd [25]: below the threshold
- pKd [26]: below the threshold
- pKd [27]: below the threshold
- pKd [28]: below the threshold
B1: DFNB31_int, Q9P202 (peptide)
chain: VSVDDVRSTSQGLSSY

— publication PMC9482650, “Quantitative fragmentomics allow affinity mapping of interactomes” (Nature Communications, 2022)
